Here are results for one molecule from patent publication US7838294B2, “Inhibitors of the JNK signal transduction pathway and methods of use” (University of Massachusetts, priority 1997, dated 2010).

For assay [1], the system named is ATF2 transcriptional activity. The experiment in a line: GAL4 luciferase reporter assay in CHO cells: GAL4-ATF2. It counts as cell-based, Chinese hamster. How it is done:
In these experiments, CHO cells were cotransfected with constructs encoding the transcription factors and JIP-1 using previously described methods. Dérijard et al., supra; Sluss et al., supra; Gupta et al., supra. A luciferase reporter plasmid was used to monitor the expression of the transcription factors. Transfection efficiency was determined using a β-galactosidase expression vector. Constructs used in these experiments included GAL4 fusions with the c-myc, Sp1 and VP16 activation domains (described in Whitmarsh et al., Science, 269:403 (1995); Davis, Science, 269:403 (1995); Gille et al., Curr. Biol., 5:1191 (1995)). Other constructs used were GAL4-c-Jun, in which GAL4 is fused to c-Jun; GAL4-c-Jun (S63A/S73A), in which GAL4 is fused to a mutant c-Jun in which the serines at positions 63 and 73 have been changed to alanines; GAL4-ATF2, in which GAL4 is fused to wild type ATF2 (ATF2(Thr-69, 71)); GAL4-ATF2 (T69A/T71A) (ATF2(Ala-69/71)), in which GAL4 has been fused to a mutant ATF2 in which the […] at positions 69 and 71 have been changed to alanines; GAL4-Elk-1, in which GAL4 has been fused to Elk-1; and GAL4-Elk-1 (S383A), in which GAL4 has been fused to a mutant Elk-1 in which the serine at position 383 has been changed to an alanine. Gupta et al., EMBO J, 15:2760-2770 (1996); Raingeaud et al., Mol. Cell. Biol., 16:1247-1255 (1996); Whitmarsh et al. Science, 269:403-407 (1995).
Insertional overlapping PCR, described in detail in Ho, supra, was used to construct expression vectors for the JNK binding domain (JBD; amino acid residues 127-281) of JIP-1 and for a mutant JIP-1 lacking the SH3 (amino acid residues 491-540) domain.
Transfected cells were activated by treatment with 10% (v/v) fetal calf serum, and luciferase and β-galactosidase activities were measured in cell lysates at 48 hours post-transfection. The data are presented as the ratio of luciferase activity (light units) to β-galactosidase activity (OD units) measured in the cell extracts (mean±SEM (n=3)), and are normalized to the luciferase activity detected in the absence of JBD (FIGS. 4A and 4B) or ATF2 (FIG. 4C).

A further assay addresses T1, JNK1 (Homo sapiens, UniProt P45983).
T1 construct: expressed in transfected cells
In words: GST-fusion pull-down from cell lysates, Flag immunoblot: JNK1. In kind it is binding. Particulars: GST pull-down, Flag immunoblot. Here is the method: To test whether JIP-1 binding to JNK is also isoform-dependent, a binding assay was utilized. Cell lysates (1 ml in TLB) containing JNK1, JNK2, or p38 MAP kinase, each tagged with the Flag epitope, were incubated with 5 μg GST-fusion proteins pre-bound to 10 μl glutathione-Sepharose. The GST fusion proteins used contain residues 127-202 (SEQ ID NO:15), 203-281 (SEQ ID NO:16), 164-240 (SEQ ID NO:17), or 127-281 (SEQ ID NO:4) of JIP-1. The GST-ATF2 fusion protein contains residues 1-109 of ATF2, and the GST-Jun fusion protein contains residues 1-79 of c-Jun. After incubation for one hour at 4° C. and three washes with TLB, bound proteins were detected by protein immunoblot analysis with the M2 monoclonal antibody, which is specific for the Flag epitope. Dérijard, et al., supra; Sluss et al., supra; Gupta et al., supra. […] This finding is consistent with the results of previous studies. In contrast, when GST-JIP-1 fusion proteins containing residues 127-202 or 127-281 of JIP-1 were tested in the assay, these proteins bound both JNK1 and JNK2.
The GST-JIP-1 fusion proteins containing various portions of the JIP-1 gene were used to define regions of JIP-1 that are required for JNK interaction. A GST-JIP-1 fusion protein containing residues 127-281 of JIP-1 bound both JNK1 and JNK2.
To more precisely define the JIP-1 sequence required for JNK binding activity, additional […] fusion proteins were constructed. These fusion proteins contained residues 135-202 (SEQ ID NO:18), 144-202 (SEQ ID NO:19), 154-202 (SEQ ID NO:20), 164-202 (SEQ ID NO:21), 127-143 (SEQ ID NO:22), 127-153 (SEQ ID NO:23), or 127-163 (SEQ ID NO:24) of JIP-1. Proteins containing residues 127-202, 135-202, 144-202, […], and 127-163 all bound both JNK1 and JNK2. Thus, JIP-1 residues 144-163 are important for the interaction of JIP-1 with JNK.

T1 sequence (P45983 1-384 isoform P45983-2): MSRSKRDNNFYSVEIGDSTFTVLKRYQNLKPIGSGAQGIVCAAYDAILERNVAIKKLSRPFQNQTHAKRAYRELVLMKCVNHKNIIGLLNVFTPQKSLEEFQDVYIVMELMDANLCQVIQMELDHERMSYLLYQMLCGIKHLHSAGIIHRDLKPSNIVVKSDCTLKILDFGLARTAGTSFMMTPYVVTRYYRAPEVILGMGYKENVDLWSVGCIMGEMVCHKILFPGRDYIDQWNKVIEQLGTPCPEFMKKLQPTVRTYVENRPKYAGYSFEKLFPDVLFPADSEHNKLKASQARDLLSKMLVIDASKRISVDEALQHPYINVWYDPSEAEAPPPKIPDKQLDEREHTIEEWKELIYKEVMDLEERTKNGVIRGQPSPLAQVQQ

B1: JIP-1: 660 amino acid murine cytoplasmic protein that specifically binds JNK (protein)
chain: MAERESGLGGGAASPPAASPFLGLHIASPPNFRLTHDISLEEFEDEDLSEITDECGISLQCKDTLSLRPPRAGLLSAGSSGSAGSRLQAEMLQMDLIDAAGDTPGAEDDEEEEDDELAAQRPGVGPPKAESNQDPAPRSQGQGPGTGSGDTYRPKRPTTLNLFPQVPRSQDTLNNNSLGKKHSWQDRVSRSSSPLKTGEQTPPHEHICLSDELPPQGSPVPTQDRGTSTDSPCRRSAATQMAPPSGPPATAPGGRGHSHRDRIHYQADVRLEATEEIYLTPVQRPPDPAEPTSTFMPPTESRMSVSSDPDPAAYSVTAGRPHPSISEEDEGFDCLSSPERAEPPGGGWRGSLGEPPPPPRASLSSDTSALSYDSVKYTLVVDEHAQLELVSLRPCFGDYSDESDSATVYDNCASASSPYESAIGEEYEEAPQPRPPTCLSEDSTPDEPDVHFSKKFLNVFMSGRSRSSSAESFGLFSCVINGEEHEQTHRAIFRFVPRHEDELELEVDDPLLVELQAEDYWYEAYNMRTGARGVFPAYYAIEVTKEPEHMAALAKNSCVLEISVRGVKIGVKADDALEAKGNKCSHFFQLKNISFCGYHPKNNKYFGFITKHPADHRFACHVFVSEDSTKALAESVGRAFQQFYKQFVEYTCPTEDIYLE
As to B1, in assay [1] (GAL4-ATF2 (T69A/T71A), FIG. 4B), the “basal transcriptional activity of ATF2 mutated at JNK phosphorylation sites” value is given as “not markedly inhibited”. Further, the JNK-regulated gene expression entry in assay [1] (GAL4-ATF2 reporter, CHO cells, FIG. 4C) was “inhibition”. Further, the ATF2 transcriptional activity result in assay [1] (wild type GAL4-ATF2, CHO cells, FIG. 4B) is reported as “Significant inhibition”. Also, the “binding of JNK compared with binding of JNK to ATF2 or c-Jun” value with JNK1 is on record as “significantly greater”.
